Data as given in patent US7410774B1, “Compounds modulating sister chromatid separation and method for identifying same” (Boehringer Ingelheim International GmbH, priority 1999, dated 2008).
Changes are numbered by the printed parent chain. Numbers in names are those of the source.

B1: Esp1 mutant C1531A tagged with a FLAG epitope, overexpressed in yeast (protein)
chain: MMVKQEEPLNEISPNTPMTSKSYLLNDTLSKVHHSGQTRPLTSVLSGDASSNSIGILAMHNNIIRDFTKIASNNIDLAIEDITTVDHSLNSIYSLLKSHHMWGHINSTVKQHLMIIVKLINNNALGLASSEIIFLFNETNLFQAHSLKNILLADFSTWNDYYLSNLKILALQIILKRKLVDEYLPHILELFSHDKRYLLKDPNLKAHALTKIVLSFFSVTTSCKVLFGLKFLQYIKQFKLPFKKFISNITVECFSKNLLHKNYLEMGPNKIYLNSFYLSYSMLYDGLDKIMLLDILSYEETTEVQRAIKSKKEFNEYCNMSENRLLWSCISVDDLNVILENATNFLQNKGKHISATLKCLVCLWSTIRLEGLPKNKDILRQFDCTVIYINSNIKSINDESAAALLSELLGVLSEICIDYKEPKRLSNIISVLFNASVLFKSHSFLLKTANLEISNVLISNDSKTSHRTILKFEKFISSAQSAQKKIEIFSCLFNVYCMLRNDTLSFVFDFCQNAFIHCFTRLKITKFIEFSNSSEIMLSVLYGNSSIENIPSENWSQLSRMIFCSLRGIFDLDPLELNNTFDKLHLLNKYELLIRIVYLLNLDMSKHLTTNLSKITKLYINKWLQKSDEKAERISSFEMDFVKMLLCYLNFNNFDKLSIELSLCIKSKEKYYSSIVPYADNYLLEAYLSLYMIDDALMMKNQLQKTMNLSTAKIEQALLHASSLINVHLWDSDLTAFQIYFGKTLPAMKPELFDINNDHNLPMSLYIKVILLNIKIFNESAKLNIKAGNVISAVIDCRKAQNLALSLLKKKNKLSQGSRLALLKSLSFSFFQLIKIHIRIGSARDCEFYSKELSRIISDLEEPIIVYRCLHFLHRYYMITEQTCLQNITLGKANKAFDYLDAEADITSLTMFLYDNKEFVKLEQSLVLYFGDQLEKTFLPNLWKLHLGKDIDDSICLSEYMPKNVINRVHNMWQKVMSQLEEDPFFKGMFESTLGIPSSLPVIPSTMPNNILKTPSKHSTGLKLCDSPRSSSMTPRGKNIRQKFDRIAAISKLKQMKELLESLKLDTLDNHELSKISSLSSLTLTILSNITSIHNAESSLITNFSLTDLPRHMPLLFDKVLNNIDNKNYREFRVSSLIAPNNISTITESIRVSAAQKDLMESNLNINVITIDFCPITGNLLLSKLEPRRKRRTHLRLPLIRSNSRDLDEVHLSFPEATKKLLSIINESNQTTSVEVTNKIKTREERKSWWTTRYDLDKRMQQLLNNIENSWFNGVQGFFSPEVVDNSLFEKFKDKFYEILHQNLPSRKLYGNPAMFIKVEDWVIELFLKLNPQEIDFLSKMEDLIYFVLDILLFHGEENAYDEIDFSMLHVQLEEQIKKYRATMTTNSIFHTFLVVSSSCHLFPWECLSFLKDLSITRVPSYVCLNKLLSRFHYQLPLQVTIEDNISMILNPNGDLSRTESKFKGMFQKIIDAKPSSQLVMNEKPEEETLLKMLQNSNLFVYIGHGGGEQYVRSKEIKKCTKIAPSFLLGASSAAMKYYGKLEPTGTIYTYLLGGCPMVLGNLWDVTDKDIDKFSEELFEKMGFRCNTDDLNGNSLSVSYAVSKSRGVCHLRYLNGAAPVIYGLPIKFVS
B2: Wildtype Esp1 tagged with a FLAG epitope, overexpressed in yeast (protein)
chain: B1 chain with A1531C
B3: Esp1 mutant H1505A tagged with a FLAG epitope, overexpressed in yeast (protein)
chain: B1 chain with H1505A, A1531C
B4: Pds1: yeast inhibitory protein binding Esp1; in vitro translated in reticulocyte lysate (protein)
chain: MMPANEDKENNIVYTGNESSGINFPQTPAHLLKRSHSNILKPPVRLDQLKRDANSNNGNTLKYIQGGKEVSPTKRLHTHAQQQGRLPLAAKDNNRSKSFIFPETSNQSKDADLPQLQNTLSIRKNDQLRKLSQISRSRSRANHNDLLSNSRKLQKYGSVLGYNALPKMKSLVLKDLADSGKNEESSDDDEGNEDSESKLGKKLQSALLKQDSSDGENELNGGLGLFNEQGGLQQLIKNSTKNEQKTKNDKSDKTDDYDIEIAPQRQEPLPYVPEGYSPFQQDDIEKLKTFNSPYKLDLEDEDDTPDKVDLLPLEQIDEEGEKDETECITRNQEEGAALPLLSKNFKEVAAVPTMELVYSEEGLDPEELEDLVT

What was measured:
[1] = molecular target: T1, Esp1 (Saccharomyces cerevisiae, UniProt Q03018); experiment: In vitro assay for yeast Esp1p activity (Esp1-dependent Scc1p cleavage); assay type: biochemical; conditions: yeast chromatin incubated with extract over-producing Esp1; Western blot
T1 construct: made in house; host or cells: S. cerevisiae W303 derivative overexpressing Esp1p from the GAL1-10 promoter; soluble cell extract, not purified
Method: A crude Triton X-100 insoluble chromatin preparation was obtained from yeast cells as described (Liang and Stillman, 1997). The pelleted chromatin was resuspended in yeast cell extracts that had been prepared similar to the supernatant fraction of the chromatin preparation. One tenth volume of an ATP regenerating system was added (50 mM HEPES/KOH pH-7.5, 100 mM KCl, 10 mM MgCl2, 10 mM ATP, 600 mM creatin phosphate, 1.5 mg/ml phophocreatin kinase, 1 mM DTT, 10% glycerol). Reactions were incubated for 10 min at 25° C. with shaking and stopped on ice. The chromatin fraction was separated again from the supernatant by centrifugation, and resuspended in buffer EBX (Liang and Stillman, 1997). Equivalent aliquots of supernatant and chromatin pellet were analysed by SDS-PAGE and Western blotting. Scc1-HA was detected with the anti-HA monoclonal antibody 16B12 (Boehringer Mannheim). […]
Chromatin was prepared from a strain containing Scc1p tagged with HA epitopes that was arrested in metaphase with nocodazol. The proteins in the chromatin preparation were resolved by SDS-PAGE and Scc1-HA was detected by western blotting (FIG. 2, lane 1). […] Aliquots of the supernatant fraction and the chromatin fraction of each reaction were analysed.

[2] = molecular target: T2, Scc1p tagged with multiple HA epitopes, chromatin-bound (chromatin of nocodazole-arrested yeast), Q12158
T2 chain: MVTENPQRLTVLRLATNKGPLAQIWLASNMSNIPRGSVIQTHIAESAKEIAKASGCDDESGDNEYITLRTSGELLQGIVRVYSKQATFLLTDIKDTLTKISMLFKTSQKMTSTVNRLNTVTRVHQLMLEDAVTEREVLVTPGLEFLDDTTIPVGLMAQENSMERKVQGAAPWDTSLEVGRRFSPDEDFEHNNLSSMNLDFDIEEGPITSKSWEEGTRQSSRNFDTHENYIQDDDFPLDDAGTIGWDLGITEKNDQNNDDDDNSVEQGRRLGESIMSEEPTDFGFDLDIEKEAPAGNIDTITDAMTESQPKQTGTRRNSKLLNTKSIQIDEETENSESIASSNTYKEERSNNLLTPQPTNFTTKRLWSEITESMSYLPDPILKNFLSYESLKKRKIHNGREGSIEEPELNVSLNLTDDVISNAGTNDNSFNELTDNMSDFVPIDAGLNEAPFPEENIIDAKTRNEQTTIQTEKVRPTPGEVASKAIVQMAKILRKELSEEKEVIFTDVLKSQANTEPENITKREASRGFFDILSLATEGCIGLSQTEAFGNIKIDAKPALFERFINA

T1 sequence (Q03018 whole entry): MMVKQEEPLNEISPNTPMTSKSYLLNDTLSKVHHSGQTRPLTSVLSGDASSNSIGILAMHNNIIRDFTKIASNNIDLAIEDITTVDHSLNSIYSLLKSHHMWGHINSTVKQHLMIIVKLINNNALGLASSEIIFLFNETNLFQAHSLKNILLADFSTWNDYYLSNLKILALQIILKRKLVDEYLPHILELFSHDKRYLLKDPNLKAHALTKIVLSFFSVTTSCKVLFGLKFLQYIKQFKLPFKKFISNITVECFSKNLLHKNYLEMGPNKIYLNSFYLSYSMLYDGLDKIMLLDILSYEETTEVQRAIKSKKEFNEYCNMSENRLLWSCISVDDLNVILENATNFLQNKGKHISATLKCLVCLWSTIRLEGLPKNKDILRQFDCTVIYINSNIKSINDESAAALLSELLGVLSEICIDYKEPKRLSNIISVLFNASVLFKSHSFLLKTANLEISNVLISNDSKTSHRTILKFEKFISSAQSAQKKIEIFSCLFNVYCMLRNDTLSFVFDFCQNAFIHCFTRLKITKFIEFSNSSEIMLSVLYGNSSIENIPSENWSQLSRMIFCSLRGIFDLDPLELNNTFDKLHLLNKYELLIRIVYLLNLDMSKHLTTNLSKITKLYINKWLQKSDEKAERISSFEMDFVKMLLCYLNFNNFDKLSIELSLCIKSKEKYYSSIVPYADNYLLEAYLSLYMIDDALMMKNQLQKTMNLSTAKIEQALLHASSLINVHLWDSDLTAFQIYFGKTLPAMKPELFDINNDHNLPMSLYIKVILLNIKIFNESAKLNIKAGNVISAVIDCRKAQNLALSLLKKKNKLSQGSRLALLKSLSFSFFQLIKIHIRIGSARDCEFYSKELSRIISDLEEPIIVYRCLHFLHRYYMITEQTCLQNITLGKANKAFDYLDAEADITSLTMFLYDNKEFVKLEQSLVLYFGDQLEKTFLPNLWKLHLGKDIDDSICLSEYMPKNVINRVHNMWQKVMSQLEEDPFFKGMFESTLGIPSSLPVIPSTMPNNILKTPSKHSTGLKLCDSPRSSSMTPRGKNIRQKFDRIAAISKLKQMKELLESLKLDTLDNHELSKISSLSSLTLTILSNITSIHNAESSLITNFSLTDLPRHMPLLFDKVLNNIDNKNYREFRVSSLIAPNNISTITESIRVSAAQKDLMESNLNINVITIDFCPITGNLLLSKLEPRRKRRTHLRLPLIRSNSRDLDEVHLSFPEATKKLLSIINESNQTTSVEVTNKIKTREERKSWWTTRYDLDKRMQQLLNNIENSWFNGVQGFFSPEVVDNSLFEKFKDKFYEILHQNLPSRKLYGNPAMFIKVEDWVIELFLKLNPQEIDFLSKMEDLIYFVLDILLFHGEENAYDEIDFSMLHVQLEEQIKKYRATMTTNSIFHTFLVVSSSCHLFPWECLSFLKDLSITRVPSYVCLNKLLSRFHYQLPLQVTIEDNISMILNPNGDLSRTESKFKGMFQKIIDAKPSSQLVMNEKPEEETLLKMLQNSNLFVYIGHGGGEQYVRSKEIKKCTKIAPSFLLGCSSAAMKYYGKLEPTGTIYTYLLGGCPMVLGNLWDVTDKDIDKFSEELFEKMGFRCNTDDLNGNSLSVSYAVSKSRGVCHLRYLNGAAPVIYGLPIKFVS

Molecule	Esp1-dependent in vitro cleavage of Scc1p [1]	Scc1 cleavage activity in yeast extracts [2]
CCN1C(=O)C=CC1=O [N-ethyl maleimide]	inhibited	–
B1	–	Both mutations completely abolished the proteolytic activity in yeast extracts after overproduction of the proteins
B2	–	Wild type Esp1 overexpressed to a similar level caused complete cleavage of the Scc1 substrate
B3	–	Both mutations completely abolished the proteolytic activity in yeast extracts after overproduction of the proteins
B4	inhibited	–
